Experiment in all cases: pulldown with E. coli lysates, quantified
The target of test [1] is eIF4E-binding motif of human eIF4EBP1 (50-83) (UniProt Q13541). To be noted: n = 3 independent experiments; parent: est. 0.90; read off a plot.
Test [2] has as its target eIF4E-binding motif of human eIF4ENIF1 (27-63) (UniProt Q9NRA8). To be noted: n = 3 independent experiments; parent: est. 2.5; read off a plot.
In test [3] the target is eIF4E-binding motif of human eIF4G (608-647) (UniProt Q04637). Conditions: n = 3 independent experiments; parent: est. 0.30; read off a plot.
Sequence of eIF4E-binding motif of human eIF4G (608-647) (Q04637 608-647): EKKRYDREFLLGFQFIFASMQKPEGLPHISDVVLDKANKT

Sequence of mouse eIF4E1B (63-244) (from UniProt Q3UTA9) Lateral (V91, T92, I107 mutated; new residues not printed) (Q3UTA9 63-244, change not shown): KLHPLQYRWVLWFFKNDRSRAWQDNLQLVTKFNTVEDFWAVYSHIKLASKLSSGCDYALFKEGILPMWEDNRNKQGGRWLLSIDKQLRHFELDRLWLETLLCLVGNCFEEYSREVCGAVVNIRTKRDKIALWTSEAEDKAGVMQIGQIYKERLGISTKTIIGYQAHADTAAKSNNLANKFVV
Sequence of mouse eIF4E1B (63-244) (from UniProt Q3UTA9) Dorsal (W101 mutated; new residue not printed) (Q3UTA9 63-244, change not shown): as above
Sequence of eIF4E-binding motif of human eIF4ENIF1 (27-63) (Q9NRA8 27-63): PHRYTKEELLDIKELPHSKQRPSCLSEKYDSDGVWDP
Sequence of eIF4E-binding motif of human eIF4EBP1 (50-83) (Q13541 50-83): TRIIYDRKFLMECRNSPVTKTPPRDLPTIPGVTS

On to “mouse eIF4E1B (63-244) (from UniProt Q3UTA9) Dorsal (W101 mutated; new residue not printed)”, for which the other: Binding (rel. to Mm eIF4E) (rel. to Mm eIF4E) in test [1] worked out at 0.1; in test [2], 0.15; in test [3], 0.2.
For “mouse eIF4E1B (63-244) (from UniProt Q3UTA9) Lateral (V91, T92, I107 mutated; new residues not printed)” the same measures were 0.2, 0.9 and 0.12.

These data come from article PMC10883267 (2023).
